From PMC7064531 (2020)
Values belong to the binder of their own block, whether it stands above or below them. Where no end group is shown, it is not given here. [ ]: non-standard residue; d: D form. pY = N[C@@H](Cc1ccc(OP(=O)(O)O)cc1)C(=O)O

Experiments:
[1] = target: T1, E6AP AZUL (amino-terminal zinc-binding domain of ubiquitin E3a ligase), amino acids 24 to 87 (human, UniProt Q05086 24-87); assay: ITC; Y326 phosphorylated
T1 chain: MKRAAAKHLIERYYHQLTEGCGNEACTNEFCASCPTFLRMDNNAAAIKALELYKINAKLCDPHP

[2] = target: T1, E6AP AZUL (amino-terminal zinc-binding …); assay: ITC; Y326 phosphorylated
[3] = target: T1, E6AP AZUL (amino-terminal zinc-binding …); assay: SPR
[4] = target: T1, E6AP AZUL (amino-terminal zinc-binding …); assay: ITC
[5] = target: T1, E6AP AZUL (amino-terminal zinc-binding …); assay: ITC

Kd [1]: 0.189 µM
Kd [2]: 0.189 µM
B1: hRpn10^322–366 peptide with Y326 phosphorylated (peptide)
chain: EEDD[pY]DVMQDPEFLQSVLENLPGVDPNNEAIRNAMGSLASQATKD
modifications: not fully specified

koff [3]: 0.0211 s⁻¹
B2: GST-hRpn10^305–377 (domain or fragment)
chain: SADIDASSAMDTSEPAKEEDDYDVMQDPEFLQSVLENLPGVDPNNEAIRNAMGSLASQATKDGKKDKKEEDKK

Kd [4]: 0.0182 µM
Kd [5]: 0.0182 µM
B3: hRpn10^322–366 peptide (peptide)
chain: EEDDYDVMQDPEFLQSVLENLPGVDPNNEAIRNAMGSLASQATKD
